The text below walks through data of patent US20210101953A1 (ZHEJIANG K2 ONCOLOGY, published 2021).

For test [1], the target named is T1, EpCAM protein on Skov3 cells (UniProt P16422 24-314, limits assumed).
T1 construct: whole, on cells; also called cellular level EpCAM; epithelial cell adhesion molecule
T1 sequence (looked up): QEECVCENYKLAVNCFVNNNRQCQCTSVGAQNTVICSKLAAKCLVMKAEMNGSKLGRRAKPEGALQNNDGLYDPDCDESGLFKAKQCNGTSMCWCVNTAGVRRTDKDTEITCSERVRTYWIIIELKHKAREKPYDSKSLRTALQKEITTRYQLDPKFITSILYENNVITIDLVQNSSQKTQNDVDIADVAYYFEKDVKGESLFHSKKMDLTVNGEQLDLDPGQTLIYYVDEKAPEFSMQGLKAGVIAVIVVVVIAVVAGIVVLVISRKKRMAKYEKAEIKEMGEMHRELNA
The test can be described thus: staining of fixed Skov3 cells, detected with anti-human IL-2 antibody and DAB. As for the experimental part:
Skov3 cells have adherent growth in a 24-pore plate for 24 hours and are fixed for 10 minutes using 4% PFA (paraformaldehyde); 5% BSA is added to block non-specific antigens; a primary antibody of anti-human IL-2 is added for incubation for 1 hour; after washing is performed 3 times with PBST, a secondary antibody is added; after incubation is performed for 1 hour, DAB (diaminobenzidine) is added for color development; and after washing is performed with PBS, photographing is performed under a bright-field microscope.

The target of test [2] is T2, recombinant human EpCAM protein (Sino biologics, Product Number 10694-H08H) (human, UniProt P16422 24-265).
T2 construct: Bought protein coated on the ELISA plate at 1 ug/ml
T2 sequence (looked up): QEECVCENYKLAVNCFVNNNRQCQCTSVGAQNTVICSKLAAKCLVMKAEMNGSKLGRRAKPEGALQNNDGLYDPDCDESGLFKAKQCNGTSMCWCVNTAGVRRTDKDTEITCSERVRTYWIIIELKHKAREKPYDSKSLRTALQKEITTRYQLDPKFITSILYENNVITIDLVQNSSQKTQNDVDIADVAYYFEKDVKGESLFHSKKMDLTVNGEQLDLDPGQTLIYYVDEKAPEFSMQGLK
The test can be described thus: ELISA on coated recombinant human EpCAM, bound protein detected by its IL-2 part with an IL-2 ELISA kit. As for the experimental part: 2. […] [0069] ii. IL-2 level detection: an IL-2 ELISA commercial kit (Manufacturer: Biolegend; Product Number 431801) is adopted; the brief steps include adding a primary antibody of anti-human IL-2, incubating for 1 hour and then adding a horseradish peroxidase labeled secondary antibody to obtain a […] signal by TMB color development. [0070] iii. Data processing: a standard curve is obtained by using an IL-2 standard product included in the kit, and the IL-2 signal level corresponding to the amount of protein bound to EpCAM is calculated, which represents the level of the protein bound to EpCAM.
For orientation: An ELISA detects its analyte on a solid surface through an enzyme-linked reagent.

B1: fusion protein EPIL-2-2303301 of the anti-EpCAM single-chain antibody and IL-2 (other)
chain: APTSSSTKKTQLQLEHLLLDLQMILNGINNYKNPKLTRMLTFKFYMPKKATELKHLQCLEEELKPLEEALNLAPSKNFHLRPRDLISNINVIVLELKGSETTFMCEYADETATIVEFLNRWITFSQSTISTLTGGGGSGGGGSGGGGSGGGGSEVQLLEQSGAELVKPGASVKISCKASGYAFTNYWLGWVKQRPGHGLEWIGDLFPGSGNTHYNERFRGKATLTADKSSSTAFMQLSSLTSEDSAVYFCARLRNWDEAMDYWGQGTTVTVSSGGGGSGGGGSGGGGSELVMTQSPSYLAASPGETITINCRASKSISKYLAWYQEKPGKTNKLLIYSGSTLQSGIPSRFSGSGSGTDFTLTISSLEPEDFAMYYCQQHNEYPYTFGGGTKLEIKHHHHHH
notes: Single chain; Expressed in HEK293 cells and purified on Ni-Sepharose
In the case of B1, the binding result in test [1] and in test [2] was “binds” throughout.

B2: fusion protein EPIL-2-2303407 of the anti-EpCAM single-chain antibody and IL-2 (other)
chain: APTSSSTKKTQLQLEHLLLDLQMILNGINNYKNPKLTRMLTFKFYMPKKATELKHLQCLEEELKPLEEALNLAPSKNFHLRPRDLISNINVIVLELKGSETTFMCEYADETATIVEFLNRWITFSQSTISTLTGGGGSGGGGSGGGGSGGGGSEVQLLEQSGAELARPGASVKLSCKASGYTFTNYGLSWVKQRPGQVLEWIGEVYPRIGNAYYNEKFKGKATLTADKSSSTASMELRSLTSEDSAVYFCARRGSYDTNYDWYFDVWGQGTTVTVSSGGGGSGGGGSGGGGSELVMTQTPLSLPVSLGDQASISCRSSQSLVHSNGNTYLHWYLQKPGQSPKLLIYKVSNRFSGVPDRFSGSGSGTDFTLKISRVEAEDLGVYFCSQSTHVPYTFGGGTKLEIKHHHHHH
notes: as for B1
Turning to B2, the binding result in test [1] and in test [2] was “binds” in each case.
